Assay results as given in patent publication US20240310359A1.

Biological target: SERCA1a, mouse (endogenous, differentiated skeletal muscle cells) (mouse) (UniProt Q8R429)
Assay: cell-based or functional assay

Chain of SERCA1a, mouse (endogenous, differentiated skeletal muscle cells) (mouse) (Q8R429 whole entry): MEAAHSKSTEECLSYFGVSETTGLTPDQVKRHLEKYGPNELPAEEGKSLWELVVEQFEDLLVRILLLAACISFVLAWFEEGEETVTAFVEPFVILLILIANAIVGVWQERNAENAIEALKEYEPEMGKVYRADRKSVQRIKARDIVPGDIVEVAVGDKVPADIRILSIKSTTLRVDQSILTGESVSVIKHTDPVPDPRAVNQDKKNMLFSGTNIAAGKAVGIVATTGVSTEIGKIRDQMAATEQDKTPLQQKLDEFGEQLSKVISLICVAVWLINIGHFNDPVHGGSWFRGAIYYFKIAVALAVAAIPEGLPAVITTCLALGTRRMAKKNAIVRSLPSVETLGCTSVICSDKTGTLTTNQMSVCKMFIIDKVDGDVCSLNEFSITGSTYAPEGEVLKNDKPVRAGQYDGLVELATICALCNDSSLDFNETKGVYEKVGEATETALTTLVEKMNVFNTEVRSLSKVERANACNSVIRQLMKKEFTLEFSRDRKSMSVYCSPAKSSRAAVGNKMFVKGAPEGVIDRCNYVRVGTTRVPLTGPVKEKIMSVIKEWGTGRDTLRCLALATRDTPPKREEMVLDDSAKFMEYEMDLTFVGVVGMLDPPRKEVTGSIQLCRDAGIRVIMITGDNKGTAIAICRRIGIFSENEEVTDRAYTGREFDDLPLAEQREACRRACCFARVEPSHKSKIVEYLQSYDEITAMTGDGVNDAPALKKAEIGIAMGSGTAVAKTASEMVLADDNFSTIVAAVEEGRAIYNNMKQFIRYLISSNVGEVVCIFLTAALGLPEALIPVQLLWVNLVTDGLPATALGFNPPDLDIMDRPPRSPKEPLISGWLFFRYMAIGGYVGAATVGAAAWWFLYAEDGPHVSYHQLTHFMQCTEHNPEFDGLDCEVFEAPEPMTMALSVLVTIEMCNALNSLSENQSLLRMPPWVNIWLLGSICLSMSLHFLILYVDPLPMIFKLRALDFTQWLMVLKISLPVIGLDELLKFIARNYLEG
Chain of NHL-Del (mutant of TRIM32 without NHL repeats, expressed from pEGFP-N1 in mouse differentiated skeletal muscle cells) (Q13049 1-361, stated change not applied): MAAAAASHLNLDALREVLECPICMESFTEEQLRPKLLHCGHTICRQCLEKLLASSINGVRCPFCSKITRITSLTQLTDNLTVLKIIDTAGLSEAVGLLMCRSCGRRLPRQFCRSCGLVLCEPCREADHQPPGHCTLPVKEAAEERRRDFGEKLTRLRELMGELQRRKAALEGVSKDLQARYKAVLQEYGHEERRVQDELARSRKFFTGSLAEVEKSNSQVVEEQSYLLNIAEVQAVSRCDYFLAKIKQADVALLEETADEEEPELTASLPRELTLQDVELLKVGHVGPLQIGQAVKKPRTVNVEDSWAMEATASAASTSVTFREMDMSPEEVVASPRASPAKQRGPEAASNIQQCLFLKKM
Chain of wild-type TRIM32 (expressed from pEGFP-N1 in mouse differentiated skeletal muscle cells) (from UniProt Q13049 1-653) (enzyme) (Q13049 whole entry): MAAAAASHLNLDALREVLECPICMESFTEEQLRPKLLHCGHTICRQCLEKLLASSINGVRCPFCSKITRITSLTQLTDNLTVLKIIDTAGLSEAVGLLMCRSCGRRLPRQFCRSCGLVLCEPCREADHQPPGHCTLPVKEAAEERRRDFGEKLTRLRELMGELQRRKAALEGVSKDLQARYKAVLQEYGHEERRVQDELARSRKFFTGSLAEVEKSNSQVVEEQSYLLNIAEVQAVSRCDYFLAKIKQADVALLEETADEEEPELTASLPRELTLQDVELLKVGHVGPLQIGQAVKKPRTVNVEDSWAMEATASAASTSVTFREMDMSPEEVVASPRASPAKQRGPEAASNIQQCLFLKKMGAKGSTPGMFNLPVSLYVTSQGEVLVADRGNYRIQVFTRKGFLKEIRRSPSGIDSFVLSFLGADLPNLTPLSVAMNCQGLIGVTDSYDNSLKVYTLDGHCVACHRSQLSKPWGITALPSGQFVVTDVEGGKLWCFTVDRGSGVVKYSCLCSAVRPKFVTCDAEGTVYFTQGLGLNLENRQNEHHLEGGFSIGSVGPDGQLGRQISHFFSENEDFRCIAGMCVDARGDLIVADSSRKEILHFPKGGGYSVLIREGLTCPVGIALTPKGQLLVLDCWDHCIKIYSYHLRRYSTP
Chain of wild-type TRIM32 (expressed from pEGFP-N1 in mouse differentiated skeletal muscle cells) (from UniProt Q13049 1-653) (Q13049 whole entry): as above

Caffeine response (normalized ratio to vector control)	KCl response (normalized ratio to vector control)	Releasable Ca^2+ level from SR (normalized ratio to vector control)	Substance
0.97	0.94	0.99	NHL-Del (mutant of TRIM32 without NHL repeats, expressed from pEGFP-N1 in mouse differentiated skeletal muscle cells) (from UniProt Q13049 1-361) (enzyme)
1.22	–	–	wild-type TRIM32 (expressed from pEGFP-N1 in mouse differentiated skeletal muscle cells) (from UniProt Q13049 1-653)
–	1.27	1.48	wild-type TRIM32 (expressed from pEGFP-N1 in mouse differentiated skeletal muscle cells) (from UniProt Q13049 1-653) (enzyme)
